This is an account of results in PMC6886185, “eIF4A2 drives repression of translation at initiation by Ccr4-Not through purine-rich motifs in the 5′UTR”.

In data set [1] the target is T1, eIF4A2 (UniProt Q14240 1-407). In words: competition; 20-fold excess; readily displaces pre-bound FAM-(CAA)6CA; 20 mM Hepes/KOH pH 7.5, 100 (mM) KCl, 1 mM MgCl2, 1 mM AMP-PNP, 1 mM TCEP, 0.1% DMSO, +/-50 uM silvestrol (10 uM in Fig 4a legend), 60 min, 25 C; numeric Kd of. The settings on record: protein: recombinant; tags: SUMO tag cleaved; label: none; single strand.
T1 sequence (Q14240 whole entry): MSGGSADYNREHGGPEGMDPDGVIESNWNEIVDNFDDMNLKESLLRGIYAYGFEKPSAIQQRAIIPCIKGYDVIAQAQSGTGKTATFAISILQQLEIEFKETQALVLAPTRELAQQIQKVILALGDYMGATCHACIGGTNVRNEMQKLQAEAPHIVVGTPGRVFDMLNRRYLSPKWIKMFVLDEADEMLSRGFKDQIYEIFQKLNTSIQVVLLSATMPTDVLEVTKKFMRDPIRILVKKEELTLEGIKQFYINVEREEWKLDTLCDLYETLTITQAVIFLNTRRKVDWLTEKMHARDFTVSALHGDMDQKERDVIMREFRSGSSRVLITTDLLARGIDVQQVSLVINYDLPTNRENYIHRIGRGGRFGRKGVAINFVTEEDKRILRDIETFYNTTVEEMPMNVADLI

Data set [2] deals with T1, eIF4A2. In words: EMSA; AMP-PNP; bound even under high molar excess of (CAA)6CA; 20 mM Hepes/KOH pH 7.5, 100 (mM) KCl, 1 mM MgCl2, 1 mM AMP-PNP, 1 mM TCEP, 0.1% DMSO, +/-50 uM silvestrol (10 uM in Fig 4a legend), 60 min, 25 C; numeric Kd of. The conditions noted are these: protein: recombinant; tags: SUMO tag cleaved; label: Dy780; single strand. (In general: In EMSA bound probe runs differently from free probe, usually more slowly.)

For data set [3], the target named is T1, eIF4A2. In words: fluorescence anisotropy; 1 mM AMP-PNP, 1 mM Mg2+; 20 mM Hepes/KOH pH 7.5, 100 (mM) KCl, 1 mM MgCl2, 1 mM AMP-PNP, 1 mM TCEP, 0.1% DMSO, +/-50 uM silvestrol (10 uM in Fig 4a legend), 60 min, 25 C; numeric Kd of. The settings on record: protein: recombinant; tags: SUMO tag cleaved; label: 5' FAM; single strand, unstructured. On the technique in general: Polarisation of emitted light reports the rotation of a fluorescent probe.

Data set [4] has as its target T1, eIF4A2. In words: fluorescence anisotropy; AMP-PNP; 20 mM Hepes/KOH pH 7.5, 100 (mM) KCl, 1 mM MgCl2, 1 mM AMP-PNP, 1 mM TCEP, 0.1% DMSO, +/-50 uM silvestrol (10 uM in Fig 4a legend), 60 min, 25 C; numeric Kd of. The conditions noted are these: protein: recombinant; tags: SUMO tag cleaved; label: FAM; blunt.
Data set [5] has as its target eIF4A1 (UniProt P60842 1-406). Described as above. The conditions noted are these: protein: recombinant; tags: SUMO tag cleaved; label: FAM; blunt.

Chain of eIF4A1 (P60842 whole entry): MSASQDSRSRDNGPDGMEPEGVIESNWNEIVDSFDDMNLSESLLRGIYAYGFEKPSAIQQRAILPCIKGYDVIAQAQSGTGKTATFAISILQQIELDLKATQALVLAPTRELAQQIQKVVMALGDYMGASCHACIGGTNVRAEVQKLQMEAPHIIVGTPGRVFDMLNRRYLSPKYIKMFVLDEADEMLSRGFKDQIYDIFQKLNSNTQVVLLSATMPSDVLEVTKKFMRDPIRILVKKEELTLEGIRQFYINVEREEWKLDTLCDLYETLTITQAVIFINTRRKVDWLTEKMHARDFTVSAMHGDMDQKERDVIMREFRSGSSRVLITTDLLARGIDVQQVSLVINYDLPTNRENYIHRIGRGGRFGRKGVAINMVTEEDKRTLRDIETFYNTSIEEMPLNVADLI

B1: (AG)10 unlabelled competitor (ssRNA)
RNA: AGAGAGAGAGAGAGAGAGAG
On to B1, for which the binding result in data set [1] is “binds”.

B2: Dy780-(AG)10 ssRNA (ssRNA)
RNA: AGAGAGAGAGAGAGAGAGAG
Regarding B2, the binding result in data set [2] is given as “binds”.

B3: (AG)10 ssRNA (ssRNA)
RNA: AGAGAGAGAGAGAGAGAGAG
Turning to B3, the binding result in data set [3] is recorded as “binds”.

B4: (AG)10:(CU)10 dsRNA (dsRNA)
RNA 1: AGAGAGAGAGAGAGAGAGAG
RNA 2: CUCUCUCUCUCUCUCUCUCU
For B4, the binding result in data set [4] and in data set [5] was “no binding” throughout.
